Measurements reported in article PMC3146519, “Highly Efficient Production of Soluble Proteins from Insoluble Inclusion Bodies by a Two-Step-Denaturing and Refolding Method”.

Target: T1, NRSF/REST DBD (refolded by 2DR) (UniProt Q13127 159-412)
T1 sequence: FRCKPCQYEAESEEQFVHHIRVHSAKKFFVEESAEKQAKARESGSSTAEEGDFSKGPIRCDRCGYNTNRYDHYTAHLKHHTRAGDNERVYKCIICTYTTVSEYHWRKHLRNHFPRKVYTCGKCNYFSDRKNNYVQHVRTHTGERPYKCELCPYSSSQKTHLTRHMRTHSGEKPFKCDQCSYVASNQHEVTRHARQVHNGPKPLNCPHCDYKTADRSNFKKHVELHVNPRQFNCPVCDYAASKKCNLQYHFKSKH
Test: EMSA; 0.1 mM ZnCl2; DBD:DNA 0:1 to 3:1, 75 pmol DNA in 20 ul; 10 mM Tris pH 7.0, 0.1 mM ZnCl2, 20 ul, 30 min at room temperature; 5% native PAGE, EtBr stain
Details: protein: recombinant; label: none (EtBr stain); blunt

B1: NRSE/RE1 dsDNA (dsDNA)
DNA 1: TTCAGCACCACGGACAGCGCC
DNA 2: GGCGCTGTCCGTGGTGCTGAA
  binding result: binds
